B1: LINE1-full (parent)
chain: UACGUAGGUGGUUUUCCCCUGAUAGUGCUAAGGGGGCCUGGAAGUUUGGACUGGGCAGAGCUCAACACAGCGUGGCAAAGUGGCUGUGGCUAGACUGCCUCUCUGGAUUCCUCGUCACUCAGCAGGGCAUCUCUGAGAGAAAUGCC

This data set covers variants of B1. In words: self-cleavage, relative activity (ratio to wild type); higher = more cleavage; in vitro, sequencing; the parent is a self-cleaving ribozyme.
Turning to UACGUAGGUGGUUUUCCCCUGAUAGUGCUAAGGGGGCCAGGAAGUUUGGACUGGGCAGAGCUCAACACAGCGUGGCAAAGUGGCUGUGGCUAGACUGCCUCUCUGGAUUCCUCGUCACUCAGCAGGGCAUCUCUGAGAGAAAAGCC [U39A U143A], the self-cleavage came to 1.37.
For UACGUAGGUGGUUUUCCCCUGAUAGUGCUAAGGGGGCCAGGAAGUUUGGACUGGGCAGAGCUCAACACAGCGUGGCAAAGUGGCUGUGGCUAGACUGCCUCUCUGGAUACCUCGUCACUCAGCAGGGCAUCUCUGAGAGAAAUGCC [U39A U109A], the self-cleavage is 1.45.
Then UACGUAGGUGGUUUUCCCCUGAUAGUGCUAAGGGGGCCAGGAAGUUUGGACUGGGCAGAGCUCAACACAGCGUGGCAAAGUGGCUGUGGCUAGACUGCCUCUCUGGAUCCCUCGUCACUCAGCAGGGCAUCUCUGAGAGAAAUGCC [U39A U109C], with 1.1.
As for UACGUAGGUGGUUUUCCCCUGAUAGUGCUAAGGGGGCCAGGAAGUUUGGACUGGGCAGAGCUCAACACAGCGUGGCAAAGUGGCUGAGGCUAGACUGCCUCUCUGGAUUCCUCGUCACUCAGCAGGGCAUCUCUGAGAGAAAUGCC [U39A U87A], the figure is 0.07; as for UACGUAGGUGGUUUUCCCCUGAUAGUGCUAAGGGGGCCAGGAAGUUUGGACUGGGCAGAGCUCAACACAGCGUGGCAAAGUGGCUGUGGCUAGACUGCCUCUCUGGAUUCCUCGUCACUCAGCAGGGCAUCUCAGAGAGAAAUGCC [U39A U134A], 0.9.
In the case of UACGUAGGUGGUUUUCCCCUGAUAGUGCUAAGGGGGCCCGGAAGUUUGGACUGGGCAGAGCUCGACACAGCGUGGCAAAGUGGCUGUGGCUAGACUGCCUCUCUGGAUUCCUCGUCACUCAGCAGGGCAUCUCUGAGAGAAAUGCC [U39C A64G], the self-cleavage was 0.24.
On to UACGUAGGUGGUUUUCCCCUGAUAGUGCUAAGGGGGCCAGGAAGAUUGGACUGGGCAGAGCUCAACACAGCGUGGCAAAGUGGCUGUGGCUAGACUGCCUCUCUGGAUUCCUCGUCACUCAGCAGGGCAUCUCUGAGAGAAAUGCC [U39A U45A], for which the self-cleavage was found to be 1.54.
As for UACGUAGGUGGUUUUCCCCUGAUAGUGCUAAGGGGGCCAGGAAGCUUGGACUGGGCAGAGCUCAACACAGCGUGGCAAAGUGGCUGUGGCUAGACUGCCUCUCUGGAUUCCUCGUCACUCAGCAGGGCAUCUCUGAGAGAAAUGCC [U39A U45C], the figure is 1.58.
UACGUAGGUGGUUUUCCCCUGAUAGUGCUAAGGGGGCCCGGAAGUUUGGACUGGGCAGAGCUCAUCACAGCGUGGCAAAGUGGCUGUGGCUAGACUGCCUCUCUGGAUUCCUCGUCACUCAGCAGGGCAUCUCUGAGAGAAAUGCC [U39C A65U]: the self-cleavage is 0.12.
As for UACGUAGGUGGUUUUCCCCUGAUAGUGCUAAGGGGGCCCGGAAGUUUGGACUGGGCGGAGCUCAACACAGCGUGGCAAAGUGGCUGUGGCUAGACUGCCUCUCUGGAUUCCUCGUCACUCAGCAGGGCAUCUCUGAGAGAAAUGCC [U39C A57G], the figure is 0.44; as for UACGUAGGUGGUUUUCCCCUGAUAGUGCUAAGGGGGCCAGGAAGUUUGGACUGGGCAGAGCUCAACACAGCGUGGCAAAGUGGCUGUGGCAAGACUGCCUCUCUGGAUUCCUCGUCACUCAGCAGGGCAUCUCUGAGAGAAAUGCC [U39A U91A], 0.56.
Turning to UACGUAGGUGGUUUUCCCCUGAUAGUGCUAAGGGGGCCAGGAAGUUCGGACUGGGCAGAGCUCAACACAGCGUGGCAAAGUGGCUGUGGCUAGACUGCCUCUCUGGAUUCCUCGUCACUCAGCAGGGCAUCUCUGAGAGAAAUGCC [U39A U47C], the self-cleavage was 1.55.
Then UACGUAGGUGGUUUUCCCCUGAUAGUGCUAAGGGGGCCCGGGAGUUUGGACUGGGCAGAGCUCAACACAGCGUGGCAAAGUGGCUGUGGCUAGACUGCCUCUCUGGAUUCCUCGUCACUCAGCAGGGCAUCUCUGAGAGAAAUGCC [U39C A42G], with 1.44; and UACGUAGGUGGUUUUCCCCUGAUAGUGCUAAGGGGGCCAGGAAGUUUGGACUGGGCAGAGCUCAACACAGCGUGGCAAAGUGGCUGUGGCUAGACUGCCUCUCUGGAUUCCUCGUCACUCAGCAGGGCACCUCUGAGAGAAAUGCC [U39A U130C], with 1.5; and UACGUAGGUGGUUUUCCCCUGAUAGUGCUAAGGGGGCCAGGAAGUUUGGACUGGGCAGAGCUCAACACAGCGUGGCAAAGUGGCUGUGGCUAGACUGCCUCCCUGGAUUCCUCGUCACUCAGCAGGGCAUCUCUGAGAGAAAUGCC [U39A U102C], with 1.72.
As for UACGUAGGUGGUUUUCCCCUGAUAGUGCUAAGGGGGCCAGGAAGUUUGGACUGGGCAGAGCUCAACACAGCGUGGCAAAGUGGCUGUGGCUAGACUGCCUCUCUGGAUUCCUCGUCACACAGCAGGGCAUCUCUGAGAGAAAUGCC [U39A U119A], the figure is 1.46; as for UACGUAGGUGGUUUUCCCCUGAUAGUGCUAAGGGGGCCAGGAAGUUUGGACUGGGCAGAGCUCAACACAGCGUGGCAAAGUGGCUGUGGCUAGACUGCCUCUCUGGAUUCCUCGUCACCCAGCAGGGCAUCUCUGAGAGAAAUGCC [U39A U119C], 1.44; as for UACGUAGGUGGUUUUCCCCUGAUAGUGCUAAGGGGGCCCGGAGGUUUGGACUGGGCAGAGCUCAACACAGCGUGGCAAAGUGGCUGUGGCUAGACUGCCUCUCUGGAUUCCUCGUCACUCAGCAGGGCAUCUCUGAGAGAAAUGCC [U39C A43G], 1.38.
Then UACGUAGGUGGUUUUCCCCUGAUAGUGCUAAGGGGGCCAGGAAGUUUGGACUGGGCAGAGCUCAACACAGCGAGGCAAAGUGGCUGUGGCUAGACUGCCUCUCUGGAUUCCUCGUCACUCAGCAGGGCAUCUCUGAGAGAAAUGCC [U39A U73A], with 1.76; and UACGUAGGUGGUUUUCCCCUGAUAGUGCUAAGGGGGCCAGGAAGUUUGGACUGGGCAGAGCUCAACACAGCGCGGCAAAGUGGCUGUGGCUAGACUGCCUCUCUGGAUUCCUCGUCACUCAGCAGGGCAUCUCUGAGAGAAAUGCC [U39A U73C], with 1.38; and UACGUAGGUGGUUUUCCCCUGAUAGUGCUAAGGGGGCCAGGAAGUUUGGACUGGGCAGAGCUCAACACAGCGUGGCAAAGCGGCUGUGGCUAGACUGCCUCUCUGGAUUCCUCGUCACUCAGCAGGGCAUCUCUGAGAGAAAUGCC [U39A U81C], with 1.39.
With UACGUAGGUGGUUUUCCCCUGAUAGUGCUAAGGGGGCCAGGAAGUUUGGACUGGGCAGAGCUCAACACAGCGUGGCAAAGUGGCCGUGGCUAGACUGCCUCUCUGGAUUCCUCGUCACUCAGCAGGGCAUCUCUGAGAGAAAUGCC [U39A U85C], the self-cleavage is 0.19.
Regarding UACGUAGGUGGUUUUCCCCUGAUAGUGCUAAGGGGGCCAGGAAGUUUGGACUGGGCAGAGCUCAACACAGCGUGGCAAAGUGGCAGUGGCUAGACUGCCUCUCUGGAUUCCUCGUCACUCAGCAGGGCAUCUCUGAGAGAAAUGCC [U39A U85A], the self-cleavage is 0.11.
As for UACGUAGGUGGUUUUCCCCUGAUAGUGCUAAGGGGGCCAGGAAGUUUGGACUGGGCAGAGCUCAACACAGCGUGGCAAAGUGGCGGUGGCUAGACUGCCUCUCUGGAUUCCUCGUCACUCAGCAGGGCAUCUCUGAGAGAAAUGCC [U39A U85G], the figure is 0.28; as for UACGUAGGUGGUUUUCCCCUGAUAGUGCUAAGGGGGCCAGGAAGUUUGGACUGGGCAGAGCGCAACACAGCGUGGCAAAGUGGCUGUGGCUAGACUGCCUCUCUGGAUUCCUCGUCACUCAGCAGGGCAUCUCUGAGAGAAAUGCC [U39A U62G], 0.04.
As to UACGUAGGUGGUUUUCCCCUGAUAGUGCUAAGGGGGCCAGGAAGUUUGGACUGGGCAGAGCACAACACAGCGUGGCAAAGUGGCUGUGGCUAGACUGCCUCUCUGGAUUCCUCGUCACUCAGCAGGGCAUCUCUGAGAGAAAUGCC [U39A U62A], the self-cleavage worked out at 0.02.
As for UACGUAGGUGGUUUUCCCCUGAUAGUGCUAAGGGGGCCAGGAAGUUUGGACUGGGCAGAGCCCAACACAGCGUGGCAAAGUGGCUGUGGCUAGACUGCCUCUCUGGAUUCCUCGUCACUCAGCAGGGCAUCUCUGAGAGAAAUGCC [U39A U62C], the figure is 0.05; as for UACGUAGGUGGUUUUCCCCUGAUAGUGCUAAGGGGGCCCGGAAGUUUGGACUGGGCAGAGCUCAACACUGCGUGGCAAAGUGGCUGUGGCUAGACUGCCUCUCUGGAUUCCUCGUCACUCAGCAGGGCAUCUCUGAGAGAAAUGCC [U39C A69U], 0.06; as for UACGUAGGUGGUUUUCCCCUGAUAGUGCUAAGGGGGCCCGGAAGUUUGGACUGGGCAGAGCUCAACACCGCGUGGCAAAGUGGCUGUGGCUAGACUGCCUCUCUGGAUUCCUCGUCACUCAGCAGGGCAUCUCUGAGAGAAAUGCC [U39C A69C], 0.11.
Then UACGUAGGUGGUUUUCCCCUGAUAGUGCUAAGGGGGCCCGGAAGUUUGGACUGGGCAGAGCUCAACACAGCGUGGCAGAGUGGCUGUGGCUAGACUGCCUCUCUGGAUUCCUCGUCACUCAGCAGGGCAUCUCUGAGAGAAAUGCC [U39C A78G], with 0.95; and UACGUAGGUGGUUUUCCCCUGAUAGUGCUAAGGGGGCCCGGAAGUUUGGACUGGGCAGAGCUCAACACAGCGUGGCGAAGUGGCUGUGGCUAGACUGCCUCUCUGGAUUCCUCGUCACUCAGCAGGGCAUCUCUGAGAGAAAUGCC [U39C A77G], with 1.93.
As for UACGUAGGUGGUUUUCCCCUGAUAGUGCUAAGGGGGCCAGGAAGUUUGGACAGGGCAGAGCUCAACACAGCGUGGCAAAGUGGCUGUGGCUAGACUGCCUCUCUGGAUUCCUCGUCACUCAGCAGGGCAUCUCUGAGAGAAAUGCC [U39A U52A], the figure is 1.4; as for UACGUAGGUGGUUUUCCCCUGAUAGUGCUAAGGGGGCCCGGAAGUUUGGACUGGGCAGAGCUCAACACAGCGUGGCAAAGUGGCUGUGGCUAGACUGCCUCUCUGGCUUCCUCGUCACUCAGCAGGGCAUCUCUGAGAGAAAUGCC [U39C A107C], 2.09.
As for UACGUAGGUGGUUUUCCCCUGAUAGUGCUAAGGGGGCCCGGAAGUUUGGACUGGGCAGAGCUCAACACAGCGUGGCAACGUGGCUGUGGCUAGACUGCCUCUCUGGAUUCCUCGUCACUCAGCAGGGCAUCUCUGAGAGAAAUGCC [U39C A79C], the self-cleavage was determined as 2.53.
For the variant UACGUAGGUGGUUUUCCCCUGAUAGUGCUAAGGGGGCCCGGAAGUUUGGACUGGGCAGAGCUCAACACAGCGUGGCAAGGUGGCUGUGGCUAGACUGCCUCUCUGGAUUCCUCGUCACUCAGCAGGGCAUCUCUGAGAGAAAUGCC [U39C A79G], the self-cleavage came to 1.21.
As for UACGUAGGUGGUUUUCCCCUGAUAGUGCUAAGGGGGCCCGGAAGUUUGGACUGGGCAGAGCUCAACGCAGCGUGGCAAAGUGGCUGUGGCUAGACUGCCUCUCUGGAUUCCUCGUCACUCAGCAGGGCAUCUCUGAGAGAAAUGCC [U39C A67G], the figure is 0.35; as for UACGUAGGUGGUUUUCCCCUGAUAGUGCUAAGGGGGCCCGGAAGUUUGGACUGGGCAGAGCUCAACUCAGCGUGGCAAAGUGGCUGUGGCUAGACUGCCUCUCUGGAUUCCUCGUCACUCAGCAGGGCAUCUCUGAGAGAAAUGCC [U39C A67U], 0.16; as for UACGUAGGUGGUUUUCCCCUGAUAGUGCUAAGGGGGCCAGGAAGUUUGGACUGGGCAGAGCUCAACACAGCGUGGCAAAGUGGCUGUGGCUAGACUGCCUCUCUGGAUUCCUCGUCACUCAGCAGGGCAUCUCUUAGAGAAAUGCC [U39A G135U], 1.99.
Turning to UACGUAGGUGGUUUUCCCCUGAUAGUGCUAAGGGGGCCAGGAAGUUUGGACUGGGCAGAGCUCAACACAGCGUGGCAAAGUGGCUGUGGCUAGACUGCCUCUCUGGAUUCCUCGUCACUCAGCAGGGCAUCUCUAAGAGAAAUGCC [U39A G135A], the self-cleavage was determined as 1.57.

These data come from the RNAGym collection of RNA variant scans (doi:10.7554/elife.90254).
